Measurements: the supplement of paper PMC10567573

B1: ADD1 (parent)
chain: FASDGDSGTCSPLRHSFQKQQREK

Variants of: B1
Assay: protein stability index of a GFP-peptide fusion (GPS, HEK-293T) (PSI 1-6); higher = more stable
Details: c terminus: a fixed tail appended
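Also: lentivirally expressed fusions sorted by FACS into six bins by GFP to DsRed ratio, PSI derived from sequencing read proportions per bin multiplied by bin number.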

Protein stability index of substitutions, site by site:
K19: A 2.85 | M 3.61 | W 1.8 | S 3.23 | N 3.08 | L 2.76 | P 3.09 | Y 3.62 | Q 4.53 | R 3.19 | C 1.66 | T 3.11 | I 3.17 | D 3.61 | G 3.54 | F 3.01 | H 4.43 | E 3.71
S11: F 3.17 | V 4.58 | K 4.45 | G 4.35 | N 1.87 | Q 4.25 | P 4.62 | D 4.04 | H 2.62 | L 3.94 | C 3.16 | M 3.75 | W 2.17 | Y 3.92 | E 4.5 | A 3.9 | R 4.39 | T 4.53 | I 3.79
S16: A 3.52 | M 2.46 | R 3.89 | I 1.99 | F 2.84 | N 4.35 | W 2.75 | L 3.17 | P 2.28 | H 4.27 | Y 3.88 | V 2.31 | G 3.54 | D 4.82 | C 2.24 | K 4.59 | Q 4.27
T9: V 3.31 | Y 2.16 | F 1.64 | R 3.33 | W 3.71 | Q 4.04 | S 3.82 | P 4.35 | M 2.4 | C 3.52 | L 3.58 | E 4.79 | A 4.16 | N 4.13 | D 4.36 | H 3.45 | I 2.49
L13: T 4.98 | Q 4.95 | E 4.89 | D 4.72 | F 2.39 | C 4.25 | G 4.22 | P 4.1 | M 4.02 | H 5.09 | V 5 | N 4.26 | Y 2.13 | K 4.57 | S 4.55 | A 4.98 | I 3.97 | R 5.28
Q21: S 3.64 | A 3.85 | M 3.48 | P 3.67 | E 3.84 | L 3.26 | H 3.4 | I 3.42 | N 4.04 | C 3.57 | G 3.94 | Y 3.17 | V 3.06 | R 3.75 | W 3.49 | F 3.89 | T 3.99 | K 3.75 | D 2.81
C10: I 4.24 | F 1.87 | T 4.44 | S 4.78 | Q 4.13 | A 4.67 | N 5.17 | P 3.65 | K 4.17 | H 4.01 | E 4.66 | V 3.85 | D 4.68 | R 4.07 | G 4.49 | L 3.85 | M 3.75 | Y 1.63
S7: T 3.19 | N 4.14 | A 3.82 | I 1.49 | M 3.14 | P 3.85 | D 4.18 | K 3.69 | L 2.11 | Q 3.76 | W 2.06 | Y 3.04 | E 4.26 | G 3.46 | H 3.42 | F 2.72 | C 2.96 | V 1.49 | R 4.01
F17: Y 3.79 | A 3.68 | G 3.44 | K 3.95 | P 4.82 | S 4.47 | N 4.42 | R 4.1 | M 3.95 | V 3.71 | Q 4.52 | T 3.46 | L 4.71 | D 4.62 | W 3.72 | H 3.65 | C 4.17 | E 4.34 | I 3.87
P12: F 3.02 | N 4.95 | C 2.73 | M 4.39 | Q 4.79 | G 4.73 | S 3.67 | H 3.91 | I 3.37 | Y 3.86 | R 4.6 | K 3.3 | A 4.76 | D 4.34 | T 4.59 | E 3.93 | V 3.89 | L 3.88
Q20: P 3.65 | G 3.98 | I 3.2 | Y 2.65 | C 2.97 | R 4.05 | D 4.23 | A 4.18 | W 3.22 | F 2.8 | V 3.71 | L 2.69 | S 4.55 | N 3.65 | M 3.07 | H 3.71 | E 4.16 | K 3.96 | T 4.07
D4: T 2.69 | Y 2.66 | V 2.44
D6: T 2.9 | M 2.27 | G 3.31 | P 3.34 | Y 1.7 | V 3.13 | R 3.44 | C 3.01 | F 1.97 | W 3.8 | L 2.6 | Q 3.17 | N 3.18 | S 3.12 | I 1.92 | A 2.41 | E 3.98 | K 2.8 | H 2.29
R14: T 4.8 | S 4.45 | V 3.97 | G 4.11 | D 4.75 | P 5.13 | L 3.66 | A 4.18 | N 4.46 | W 4.02 | M 4.27 | K 4.55 | C 3.52 | E 4.64 | Y 1.94 | I 4.52 | H 3.98 | Q 3.6
Q18: T 3.4 | F 3.16 | Y 3.31 | R 3.81 | M 3.13 | L 3.73 | P 3.84 | G 3.33 | H 3.13 | I 3.33 | W 1.62 | A 2.75 | D 3.83 | E 3.88 | N 4 | V 2.97 | S 3.52 | C 2.62 | K 3.31
H15: W 2.39 | R 3.45 | V 2.93 | L 3.21 | E 4.34 | G 3.29 | T 4.16 | S 4.22 | K 4.1 | P 4.01 | I 3.5 | F 3.01 | N 4.41 | C 2.62 | M 2.88 | Y 3.44 | D 5.02 | A 3.83 | Q 3.44
G8: I 3.15 | L 3.2 | R 3.98 | E 3.92 | V 3.81 | P 4.47 | N 3.5 | D 4.29 | C 3.1 | M 2.96 | Q 3.7 | A 2.82 | Y 2.5 | K 3.57 | F 1.44 | S 3.58 | T 3.75 | H 3.86
R22: W 3.28 | D 4.51 | M 3.77 | I 3.68 | E 4.23 | N 3.42 | K 4.57 | S 4.21 | A 3.68 | F 3.63 | L 3.27 | C 3.57 | T 3.48 | Q 3.84 | P 3.57 | H 3.84 | V 3.35 | G 4.24
G5: F 4.01 | H 3.43 | N 4.29 | S 4.17 | V 3.94 | W 1.56 | A 4.17 | K 3.76 | Q 4.66 | E 4.74 | M 3.62 | Y 3.42 | P 3.67 | L 3.83 | I 3.68 | D 4.29 | T 4.37 | C 3.57 | R 3.35
